Data published in patent US20120164140A1.

What was measured:
Assay in all cases: cell-based or functional assay
BMP-4 (unlabeled) = molecular target: T1, BMP-4 (unlabeled) (UniProt P12644)
T1 sequence (looked up): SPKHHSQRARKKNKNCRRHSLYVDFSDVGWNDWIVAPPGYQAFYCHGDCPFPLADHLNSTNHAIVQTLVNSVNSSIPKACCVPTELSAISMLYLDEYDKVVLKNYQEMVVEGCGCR

BMP-5 = BMP-5 (UniProt P22003)
BMP-6 = BMP-6 (UniProt P22004)
BMP-2 (unlabeled) = molecular target: T2, BMP-2 (unlabeled) (UniProt P12643)
T2 sequence (looked up): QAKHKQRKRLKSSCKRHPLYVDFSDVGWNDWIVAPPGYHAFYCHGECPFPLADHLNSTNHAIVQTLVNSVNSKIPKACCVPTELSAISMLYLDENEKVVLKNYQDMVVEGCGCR

UniProt P22004, sequence (P22004 382-513 limits assumed): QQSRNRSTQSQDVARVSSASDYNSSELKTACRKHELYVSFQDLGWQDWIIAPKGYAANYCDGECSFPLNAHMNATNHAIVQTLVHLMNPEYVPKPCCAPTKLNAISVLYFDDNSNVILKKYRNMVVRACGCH
UniProt P22003, sequence (P22003 317-454 limits assumed): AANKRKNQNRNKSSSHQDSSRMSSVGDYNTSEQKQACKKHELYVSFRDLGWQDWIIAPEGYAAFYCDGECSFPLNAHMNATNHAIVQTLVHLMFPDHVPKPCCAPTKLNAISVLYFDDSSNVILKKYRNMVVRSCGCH

decrease in hepcidin promoter activation (luciferase reporter, Hep3B cells) (BMP-4 (unlabeled)): > 90% | decrease in hepcidin promoter activation (luciferase reporter, Hep3B cells) (BMP-5): > 90% | decrease in hepcidin promoter activation (luciferase reporter, Hep3B cells) (BMP-6): > 90% | decrease in hepcidin promoter activation (luciferase reporter, Hep3B cells) (BMP-2 (unlabeled)): > 90%
Substance: purified soluble human hemojuvelin fused to the Fc portion of immunoglobulin (HJV.Fc) (Fc fusion)
